Substitutions are numbered along the chain they refer to.
B1: 94 (antibody, V domains shown)
VL: EIVMTQSPATLSVSPGERATLSCRASENIYRNLAWYQQKPGQSPRLLIYAATNLADGIPARFSGSGSGTEYTLTISSLQSEDFAVYYCQHFWGTPWTFGQGTKVEIK
VH: QVQLVQSGSELKKPGASVKVSCKASGYTFTDYSMHWVRQAPGQGLKWMGWINTETGEPTYAQGFTGRFVFSLDTSVSTAYLQISSLKAEDTAVYYCARIPLYYYGSRYWYFDVWGQGTTVTVSS
modifications: constant regions without entry; synthetic humanized antibody light chain variable region sequence; synthetic humanized antibody heavy chain variable region sequence
B2: 140 (antibody, V domains shown)
VH: B1 VH
VL: DIQMTQSPSSLSASVGDRVTITCRASENIYRNLAWYQQKPGKAPKLLVYAATNLADGVPSRFSGSGSGTDYTLTISSLQPEDFATYYCQHFWGTPWTFGQGTKVEIK
modifications: synthetic humanized antibody heavy chain variable region sequence; synthetic humanized antibody light chain variable region sequence
B3: 96 (antibody, V domains shown)
VL: B1 VL
VH: B1 VH with Q62D, G63D, T65K
modifications: constant regions without entry; synthetic humanized antibody light chain variable region sequence; synthetic humanized antibody heavy chain variable region sequence
B4: 139 (antibody)
VH: B1 VH with K46E
VL: B2 VL
chain: ASTKGPSVFPLAPSSRSTSESTAALGCLVKDYFPEPVTVSWNSGALTSGVHTFPAVLQSSGLYSLSSVVTVPSSNFGTQTYTCNVDHKPSNTKVDKTVERKSCVECPPCPAPPAAAPSVFLFPPKPKDTLMISRTPEVTCVVVDVSHEDPEVQFNWYVDGVEVHNAKTKPREEQFNSTFRVVSVLTVVHQDWLNGKEYKCKVSNKGLPAPIEKTISKTKGQPREPQVYTLPPSREEMTKNQVSLTCLVKGFYPSDIAVEWESNGQPENNYKTTPPMLDSDGSFFLYSKLTVDKSRWQQGNVFSCSVMHEALHNHYTQKSLSLSPG
modifications: synthetic humanized antibody heavy chain variable region sequence; synthetic humanized antibody light chain variable region sequence; synthetic antibody constant region sequence
B5: 71 (antibody, V domains shown)
VH: B1 VH with V2I
VL: B1 VL
modifications: synthetic humanized antibody heavy chain variable region sequence; synthetic humanized antibody light chain variable region sequence
B6: 95 (antibody, V domains shown)
VL: B1 VL
VH: B1 VH with K46E, Q62D, G63D, T65K
modifications: constant regions without entry; synthetic humanized antibody light chain variable region sequence; synthetic humanized antibody heavy chain variable region sequence
B7: 73 (antibody, V domains shown)
VH: B1 VH with V2I, Q62D, G63D, T65K
VL: B1 VL
modifications: synthetic humanized antibody heavy chain variable region sequence; synthetic humanized antibody light chain variable region sequence
B8: 141 (antibody, V domains shown)
VH: B1 VH with K46E, Q62D, G63D, T65K
VL: B2 VL
modifications: synthetic humanized antibody heavy chain variable region sequence; synthetic humanized antibody light chain variable region sequence
B9: 138 (antibody, V domains shown)
VH: B1 VH with V2I
VL: B2 VL
modifications: synthetic humanized antibody heavy chain variable region sequence; synthetic humanized antibody light chain variable region sequence

Legend:
Assay in all cases: Selectivity ELISA of humanized antibodies for human Eph receptor
Format in all cases: binding
human EphA4 = target: T1, human EphA4 (Homo sapiens, UniProt P54764); conditions: coated protein 1 nM; reference set to 100%
T1 construct: made in house; not restated for the human SEAP-His protein
T1 sequence (P54764 20-547): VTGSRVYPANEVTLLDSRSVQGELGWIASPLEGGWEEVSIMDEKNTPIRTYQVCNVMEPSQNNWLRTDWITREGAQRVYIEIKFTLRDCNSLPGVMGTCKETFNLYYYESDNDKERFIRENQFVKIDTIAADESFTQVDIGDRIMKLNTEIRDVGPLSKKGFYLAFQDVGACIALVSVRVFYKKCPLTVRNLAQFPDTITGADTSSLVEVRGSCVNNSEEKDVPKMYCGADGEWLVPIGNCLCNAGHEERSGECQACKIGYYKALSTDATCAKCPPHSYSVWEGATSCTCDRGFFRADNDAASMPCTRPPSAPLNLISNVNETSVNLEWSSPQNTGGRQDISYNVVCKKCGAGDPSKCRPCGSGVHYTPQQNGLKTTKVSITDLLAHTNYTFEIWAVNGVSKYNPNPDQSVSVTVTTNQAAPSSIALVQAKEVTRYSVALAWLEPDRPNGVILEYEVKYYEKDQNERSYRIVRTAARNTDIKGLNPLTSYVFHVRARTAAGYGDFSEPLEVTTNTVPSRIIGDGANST
Summary of the method: (§1)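 Extracellular domains of human Eph receptors fused to SEAP-His were expressed in Expi293F cells for 5 days and captured from supernatant (1 nM final) on anti-His-coated plates. Humanized anti-EphA4 antibodies were incubated 1 h at room temperature, then HRP anti-IgG secondary, TMB substrate, and absorbance at 450 nm.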

human EphA10 = target: T2, human EphA10 (Homo sapiens, UniProt Q5JZY3); conditions: coated protein 1 nM
T2 construct: a protein of the extracellular region of each human Eph receptor fused with the SEAP protein and the His tag; made in house; host or cells: Expi293F cells (culture supernatant)
T2 sequence (Q5JZY3 34-565 limits assumed): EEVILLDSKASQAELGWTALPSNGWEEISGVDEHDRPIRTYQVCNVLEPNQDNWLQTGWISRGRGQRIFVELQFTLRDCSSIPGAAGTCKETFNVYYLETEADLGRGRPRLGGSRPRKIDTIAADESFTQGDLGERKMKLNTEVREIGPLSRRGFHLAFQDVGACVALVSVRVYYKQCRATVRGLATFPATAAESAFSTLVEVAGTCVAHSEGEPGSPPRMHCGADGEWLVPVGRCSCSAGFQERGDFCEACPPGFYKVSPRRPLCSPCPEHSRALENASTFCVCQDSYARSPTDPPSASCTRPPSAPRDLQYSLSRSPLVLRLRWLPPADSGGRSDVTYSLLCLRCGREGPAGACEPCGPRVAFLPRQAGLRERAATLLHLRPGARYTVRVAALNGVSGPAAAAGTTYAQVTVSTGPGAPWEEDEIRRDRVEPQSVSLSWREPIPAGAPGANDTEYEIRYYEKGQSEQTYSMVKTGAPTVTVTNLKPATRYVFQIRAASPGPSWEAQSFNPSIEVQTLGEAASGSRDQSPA
Summary of the method: as §1

human EphA8 = target: T3, human EphA8 (Homo sapiens, UniProt P29322); conditions: coated protein 1 nM
T3 construct: a protein of the extracellular region of each human Eph receptor fused with the SEAP protein and the His tag; made in house; host or cells: Expi293F cells (culture supernatant)
T3 sequence (P29322 28-542 limits assumed): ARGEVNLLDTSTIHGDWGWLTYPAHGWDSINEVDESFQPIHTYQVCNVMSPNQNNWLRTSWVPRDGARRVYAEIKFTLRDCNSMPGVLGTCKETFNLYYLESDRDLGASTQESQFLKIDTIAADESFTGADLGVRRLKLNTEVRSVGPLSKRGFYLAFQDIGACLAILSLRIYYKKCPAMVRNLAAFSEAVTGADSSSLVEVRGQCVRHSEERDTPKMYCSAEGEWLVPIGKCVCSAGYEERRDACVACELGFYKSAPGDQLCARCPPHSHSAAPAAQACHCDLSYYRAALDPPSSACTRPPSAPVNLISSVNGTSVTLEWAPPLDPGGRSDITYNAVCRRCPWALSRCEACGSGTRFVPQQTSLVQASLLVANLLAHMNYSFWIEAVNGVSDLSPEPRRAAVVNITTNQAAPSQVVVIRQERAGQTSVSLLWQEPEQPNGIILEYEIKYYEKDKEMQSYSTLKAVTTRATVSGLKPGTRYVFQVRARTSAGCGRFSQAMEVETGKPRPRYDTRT
Summary of the method: as §1

human EphA7 = target: T4, human EphA7 (Homo sapiens, UniProt Q15375); conditions: coated protein 1 nM
T4 construct: a protein of the extracellular region of each human Eph receptor fused with the SEAP protein and the His tag; made in house; host or cells: Expi293F cells (culture supernatant)
T4 sequence (Q15375 28-555 limits assumed): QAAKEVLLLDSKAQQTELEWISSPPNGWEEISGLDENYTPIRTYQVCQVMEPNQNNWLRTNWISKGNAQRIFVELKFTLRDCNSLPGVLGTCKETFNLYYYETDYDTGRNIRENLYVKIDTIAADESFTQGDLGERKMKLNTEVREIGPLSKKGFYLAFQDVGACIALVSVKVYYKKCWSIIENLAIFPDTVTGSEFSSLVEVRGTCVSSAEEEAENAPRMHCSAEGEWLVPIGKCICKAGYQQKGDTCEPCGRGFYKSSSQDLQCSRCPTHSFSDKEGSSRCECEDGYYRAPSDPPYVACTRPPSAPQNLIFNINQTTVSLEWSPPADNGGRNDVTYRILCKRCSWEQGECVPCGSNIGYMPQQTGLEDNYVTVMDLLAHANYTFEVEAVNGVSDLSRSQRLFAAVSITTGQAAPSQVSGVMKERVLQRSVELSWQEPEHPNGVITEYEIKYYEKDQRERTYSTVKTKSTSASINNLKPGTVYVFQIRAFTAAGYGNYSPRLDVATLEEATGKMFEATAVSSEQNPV
Summary of the method: as §1

Molecule	hEphA4-SEAP-: absorbance at 450 nm, percentage with respect to hEphA4-SEAP-His as 100% (human EphA4)	hEphA10-SEAP-: absorbance at 450 nm, percentage with respect to hEphA4-SEAP-His as 100% (human EphA10)	hEphA8-SEAP-: absorbance at 450 nm, percentage with respect to hEphA4-SEAP-His as 100% (human EphA8)	hEphA7-SEAP-: absorbance at 450 nm, percentage with respect to hEphA4-SEAP-His as 100% (human EphA7)
B1	100%	6.4%	7.0%	6.1%
B2	100%	5.2%	5.4%	5.2%
B3	100%	5.3%	5.4%	5.3%
B4	100%	5.5%	6.0%	5.5%
B5	100%	5.3%	5.3%	5.2%
B6	100%	4.5%	4.4%	4.4%
B7	100%	5.6%	5.8%	5.6%
B8	100%	5.2%	5.5%	5.3%
B9	100%	5.0%	5.4%	4.9%
